Literature values in patent US20040071657A1, “Chemoattractant recruitment of dendritic cells for enhancement of immunization” (priority 2003, published 2004).

Test system: circulating DC
Details: in vivo administration to mice

B1: Flt3-L: Flt3 ligand, a growth factor polypeptide that promotes dendritic cell growth (protein, UniProt P49771 27-235, looked up)
Fms-related tyrosine kinase 3 …: TQDCSFQHSPISSDFAVKIRELSDYLLQDYPVTVASNLQDEELCGGLWRLVLAQRWMERLKTVAGSKMQGLLERVNTEIHFVTKCAFQPPPSCLRFVQTNISRLLQETSEQLVALKPWITRQNFSRCLELQCQPDSSTLPPPWSPRPLEATAPTAPQPPLLLLLLLPVGLLLLAAAWCLHWQRTRRRTPRPGEQVPPVPSPQDLLLVEH
- increase in the number of circulating DC: 10-30 fold
